Test: soluble on expression in E. coli; label from the status in PepcDB or PDB records

Question: With “MIKVRVPDFSDKKFSDRWRYCVGTGRLGLALQKEYIETLKYVKENIDFKYIRGHGLLCDDVGIYREDVVGDEVKPFYNFTYIDRIFDSFLEIGIRPFVEIGFMPKKLASGTQTVFYWEGNVTPPKDYEKWSDLVKAVLHHFISRYGIEEVLKWPFEIWNEPNLKEFWKDADEKEYFKLYKVTAKAIKEVNENLKVGGPAICGGADYWIEDFLNFCYEENVPVDFVSRHAYTSKQGEYTPHLIYQEIMPSEYMLNEFKTVREIIKNSHFPNLPFHITEYNTSYSPQNPVHDTPFNAAYIARILSEGGDYVDSFSYWTFSDVFEERDVPRSQFHGGFGLVALNMIPKPTFYTFKFFNAMGEEMLYRDEHMLVTRRDDGSVALIAWNEVMDKTENPDEDYEVEIPVRFRDVFIKRQLIDEEHGNPWGTWIHMGRPRYPSKEQVNTLREVAKPEIMTSQPVANDGYLNLKFKLGKNAVVLYELTERIDESSTYIGLDDSKINGY” as the sequence, how does the “soluble on expression in E. coli” value read?
Answer: The value was “soluble”.

Question: For “MIKVVGLGPGSKNALTLGTLEAVKNSQNIFFRTKKHPVVEYFDEIGIKYSTYDDKYETGESFDEVYDFIARDLVSKAKELKDIVYAVPGHPLVAEKSVQILIELCEKENIKVDIVPAVSFIDALMESLKIDPVKGLKIVDAFDIKNQILDKRLGIVITQVYNSFIASDVKLALLEYYKDDTEIYFVRAAGIENEESVRKIPLYELDRQSDIDYLTSVYVPCDINNNKDFYDLLNIMEILRGENGCPWDREQSHDTIKRALIEECYEAVEAIEKNDDDMMVEELGDVLFQVVFHAKIGKDEGYFNINDVISGICNKMIERHPHVFKNEQIKNSTEVLQKWDEIKRKQQDLNSYTEEMKHIPKILPALIRAEKVQKKASKVGFDFRNVEEALDKVLEETREVKDVYKGIIRDRIAEEVGDLIFSVVNIARLLDIDSEFALNYTIDKFIKRFYYIEKAAKDKNLKIESMSLEEMNALWDEAKLKIQ”, which “soluble on expression in E. coli” value is on record?
Answer: The value was “not soluble”.

Question: Which “soluble on expression in E. coli” value does the source give for “MILFVGFLLMEIVMPQISRTALVPYSAEQMYQLVNDVQSYPQFLPGCTGSRILESTPGQMTAAVDVSKAGISKTFTTRNQLTSNQSILMNLVDGPFKKLIGGWKFTPLSQEACRIEFHLDFEFTNKLIELAFGRVFKELAANMVQAFTVRAKEVYSARLEHHHHHH” here?
Answer: The value was “not soluble”.

Question: For “MILGTPKADWLAEFPRLADLIALRPSEWFNPAIAPSAEALADVGLGAADVADASARLQRFAPLIARLFPETAASGGIIESDLVEVATFHDALRQHYAAELPGRLWLKRDSHLPISGSIKARGGIYEVLAHAERLALEHGLVGLDDDYSRLAEADCRAFFARHRIAVGSTGNLGLSIGIIGAALGFQASVHMSADARQWKKDKLRAHGVTVVEYASDYSVAVEQGRREAAGDPYTHFVDDENSRDLFLGYAVAAERLRGQLDAAGIRVDSEHPLFVHLPCGVGGGPGGVAFGLKLAFGDAVHCLFAEPTHSPCMFLGVYTGRHEQVSVQDFGIDNRTAADGLAVGRPSGFVGRAMQRLLDGYYTVDDDELFRLLALLERSQGIRLEPSALAGATGIARVTREPQGYRERMGLTSARLANATHLVWATGGGMVPETEMRAYLERGRSLL”, which “soluble on expression in E. coli” value is on record?
Answer: Its value is “not soluble”.

Question: For “MILHPRPSPIAAAMYQLRDIGVDAIILHGPSGCCFRTARLLEIDGIRVFTSAMGENDFIFGAMDKLRDVIAEVLEYLKKETPKSEKYKIGIVGTCASMIIGEDLESLIDDFDDIIIPVDIHSGLVDNTVGAIRAMDGALNAGLIDYSEYLEHHHHHH”, which “soluble on expression in E. coli” value is on record?
Answer: The value was “not soluble”.

Question: For “MILLSKQTPLGAGRHRKCYTHPDNARRCIKVIYNRDHGGDKEIRRELSYYAHLSRYLTDWSAIPRYYGTVETDCGTGYVYDMITDFNGAPSITLTEFAAQCRYEEDVAVLRRLLKKLKRYLLDNHIVTMSLKPQNILCQRISESEVVPVVCDNLGESTFIPLATWSTWCCERKLERVWQRFIAQPALAVALERDAQPKDKKRLALTSHEALEHHHHHH”, which “soluble on expression in E. coli” value is on record?
Answer: The value was “not soluble”.

Question: For “MILSVHILDQQTGKPAPGVEVVLEQKKDNGWTQLNTGHTDQDGRIKALWPEKAAAPGDYRVIFKTGQYFESKKLDTFFPEIPVEFHISKTNEHYHVPLLLSQYGYSTYRGS”, which “soluble on expression in E. coli” value is on record?
Answer: Its value is “soluble”.

Question: With “MILSVTFSPSEVPLAGAIASISSIKIIAGAACLAFLKISLILFSLSPTHLLNTSGPLTAMKLASLSVATALAKRVLPVPGGPYNKTPLGGVIPSFLNALGYFSGHSTASLSSCFTSSNPPMSSQWTFGTSMRTSLKAEGSTIFKASLEHHHHHH” as the sequence, how does the “soluble on expression in E. coli” value read?
Answer: Its value is “not soluble”.

Question: Which “soluble on expression in E. coli” value does the source give for “MILVNRETRVLVQGITGREGQFHTKQMLSYGTKIVAGVTPGKGGMEVLGVPVYDTVKEAVAHHEVDASIIFVPAPAAADAALEAAHAGIPLIVLITEGIPTLDMVRAVEEIKALGSRLIGGNCPGIISAEETKIGIMPGHVFKRGRVGIISRSGTLTYEAAAALSQAGLGTTTTVGIGGDPVIGTTFKDLLPLFNEDPETEAVVLIGEIGGFDEEEAAAWVKDHMKKPVVGFIGGRSAPKGKRMGHAGAIIMGNVGTPESKLRAFAEAGIPVADTIDEIVELVKKALG” here?
Answer: The value was “soluble”.

Question: For “MIMQKRLLNRNSSVVKSRNCLARHQHESSISKLHVSLRLHRCLRPIVRFDFLHNAGSKVCSQNSCPSPQLHVGTMALFHTVFILWPHFCGILWTVHEKLYNYLLSIEVY”, which “soluble on expression in E. coli” value is on record?
Answer: Its value is “soluble”.

Question: Which “soluble on expression in E. coli” value does the source give for “MINHKIFPTADAVVKSLADDMLAYSQQGQPVHISLSGGSTPKMLFKLLASQPYANDIQWKNLHFWWGDERCVAPDDAESNYGEANALLFSKINMPAQNIHRILGENEPQAEAERFAQAMAHVIPTENGTPVFDWILLGVGADGHTASLFPGQTDYADANLSVVASHPESGQLRVSKTAKVLQAAKRISYLVLGAGKAEIVEQIHTTPAEQLPYPAAKIHSTSGVTEWYLDSDAAAKIA” here?
Answer: The value was “soluble”.

Question: Which “soluble on expression in E. coli” value does the source give for “MININRYTLSNGLRVIHNEDNTTQMVALNLLYDVGARDEDPDHTGFAHLFEHLMFGGSIHVPDYDTPVQNAGGENNAWTNNDITNYYITLPRQNVETGFWLESDRMLSLDFNPRSLEVQRQVVIEEFKQRNLNQPYGDASHLLRALAYKVHPYQWPTIGKEISHIANATLEEVKAFFFKYYAPDNAILAVTGHITFEETVTLAEKWFGPIPRRNVAP” here?
Answer: The value was “not soluble”.

Question: Which “soluble on expression in E. coli” value does the source give for “MINKTQARRHKRKYKYRSKGNHSRSLLGMHTSPANSSMSQAIYSNDSLTTTDGVLGDESLSSETSIVSFTGENANKQKRQRLSESTENSIPEPAFLRSNVTSLTTSESDDIQQFFLENESLFQIEYKIDYKNYRDYTIVPSFGTVIPKSKCEIALICRPTGKSESDQMTISYKTVDSDNDLANGCFSEMEKIVIDIKGRSQESPIHSIPSSSGSSSTSSPSAKRRNIVDSDSD” here?
Answer: The value was “not soluble”.

Question: Which “soluble on expression in E. coli” value does the source give for “MINTMTLDNGVRIITEKMSTVRSVSIGIWVGTGSRYESAEENGISHFLEHMFFKGTNTRSAQEIAEFFDSIGGQVNAFTSKEYTCYYAKVLDDHAGQAIDTLSDMFFHSTFQKEELEKERKVVFEEIKMVDDTPDDIVHDLLSSATYGKHSLGYPILGTVETLNSFNEGMLRHYMDRFYTGDYVVISVAGNVHDELIDKIKETFSQVKPTTYNYQGEKPMFLPNRIVRKKETEQAHLCLGYPGLPIGDKDVYALVLLNNVLGGSMSSRLFQDIREKRGLCYSVFSYHSSFRDSGMLTIYAGTGHDQLDDLVYSIQETTSALAEKGLTEKELENGKEQLKGSLMLSLESTNSRMSRNGKNELLLKKHRSLDEMIEQINAVQKQDVSRLAKILLSASPSISLINANGELPKALIHLEHHHHHH” here?
Answer: The value was “soluble”.

Question: For “MINVSDLTQKLPEGSNAGVIAKNINQNQIIADYNGSTFMLPASTQKVFTAVAAKLALGDQFQFETALLSNGKIQNGNLDGNLIVSFTGDPDLTRGQLYSLLAELKKQGIKKINGDLVLDTSVFSSHDRGLGWIWNDLTMCFNSPPAAANIDNNCFYAELDANKNPGEIVKINVPAQFPIQVFGQVYVADSNEAPYCQLDVVVHDNNRYQVKGCLARQYKPFGLSFAVQNTDAYAAAIIQRQLRKLGIEFNGKVLLPQKPQQGQLLAKHLSKPLPDLLKKMMKKSDNQIADSLFRAVAFNYYKRPASFQLGTLAVKSILQKQGIRFGNSILADGSGLSRHNLVAPKTMLSVLEYIAKNEDKLHLMETFPIAGVDGTISGRGGLISPPLVKNVIAKTGSLKGVYNLAGFMTNARGEKVAFVQFINGYSTGDLESKTKRAPLVQFERNLYNELYKY”, which “soluble on expression in E. coli” value is on record?
Answer: The value was “soluble”.

Question: For “MIPITPTIALDDAEIEERFIRSSGPGGQNVNKVSTAVQLRFDVAGSPNLPGWVKHRLSVLAGSRLTGEGVLVLTAQSQRTQEANRREAVERLVALIQAACHRDKPRRPTRPTKGSQTRRMDGKTLRGAIKKGRQSKPSLDLEHHHHHH”, which “soluble on expression in E. coli” value is on record?
Answer: The value was “soluble”.

Question: Which “soluble on expression in E. coli” value does the source give for “MIPLMHDFEGETVLVVGGGSVGARKARTFATEASVVVLSPEFGDRTFADAEKVRAAPTPEDATDWVERTDPALVVAATDDSDLNGAFSTAAAEHGALVNRTDDHGDQSFGNIVVPATVRDDPVTLAIATGGRAPALSKHLRERFEDEFGNAGLMADLVGDLREDLRDRGVPPAKRRDAVRFVVRSREVWKALDSGRSKGEQVARDVIGELPGDQT” here?
Answer: Its value is “not soluble”.

Question: Which “soluble on expression in E. coli” value does the source give for “MIPMNVTFEHDFQTMRESFFENAQEAFAILDKDLNFIDINKSFTESLKTGRDKLIGKNIIEFNSSIKNTERFRLYQKVLQTGESIILDDIRLHPNLGSYTIRVSCFKVGEGIGLAILNITDLRDAIDDLETFIYKCSHDMRTPVSNIYGLIQLALEDTKDPHTVEFLNMIKHQTDRLDHIIHQLANTSRLMHDNKIIYLVDLKTVVSDVIDSFSKIPDFEAIKFTVTSSSKEKFFSDKSLLICILENIIDNAIKYRNHDIQSLIDINMSDEKSGVRITIKDNGIGIDDDIQKNVFKMFYRGTNKSSGSGLGLYTVKHFIKKLKGEISLTSEKNTGTTFSFYIPNVNTDK” here?
Answer: The value was “not soluble”.

Question: With “MIPRPIPEPSPDLYTEEEVSKLVHEFYAKARKDAALGPIFEEHVIDWDAHFVQMTNFWSAQLRGTSRFRGAPMPKHIALPELNETLFKRWLQLFRQTTLELGNPLLKQHADTVAEFIAGRLWMGYQMSHFPHREPADLNTSEV” as the sequence, how does the “soluble on expression in E. coli” value read?
Answer: The value was “not soluble”.

Question: For “MIQIRPMTPEDFDRFWPTFQAVVVAQETYAYDPALTQEQACDVWLKLPLHTLIAEEDGQLLGSYYLKANAAGPGNHVCNCGYMVTDAALGRGVARLMCEHSQQLARDSGFLAMQFNSVVASNEVAVALWAKLGFETVGRLPKAYRHARLGLVDCLVMFKWLADAPIAAEPVQPKLIGRKNIESVVSRPRRK”, which “soluble on expression in E. coli” value is on record?
Answer: The value was “not soluble”.

Question: With “MIQPVAVIGAGPFGLSTAAHLRARGIPVRVFGDPMVSWRDHMPAGMLLKSTPAASTIDAPQRGHRLVDYCDAAGIARLVTDEDIIPVETFIGYGRWFQEQLVPGLEQVRVVSVDRKAGGGFELKLDSGELFTARAVVVATGLSGLAHLPAELAGAAVDGPTPTGPVSHSSQHHDLSRFAGKELVVVGAGQSALETAALAAEAGAHVRVVSRGRGRVSFGAPPWKQPRLRPESPFGRAWSLWALSYYPHPYRYLPAEARHYLVRRVLGPLGAWWLRDRFEGKVEVREVASVARAHASEGSPVLTLRTHGGRTQELPADHVIAATGYRVDIAAMDFLGHELRTELVVSRGTPKLGAGFRSSVPGLYFTGLPAAASYGPVMRFVCGTEFASPRLAKHLAGAHGLEHHHHHH” as the sequence, how does the “soluble on expression in E. coli” value read?
Answer: Its value is “not soluble”.

Question: With “MIQRDIEYSGQYSKDVKLAQKRHKDMNKLKYLMTLLINNTLPLPAVYKDHPLQGSWKGYRDAHVEPDWILIYKLTDKLLRFERTGTHAALFGLEHHHHHH” as the sequence, how does the “soluble on expression in E. coli” value read?
Answer: Its value is “soluble”.
